Measurements as given in patent US20240100176A1 (Eli Lilly, published 2024).

Legend:
[1] = molecular target: T1, human IL-4Rα on cells (human PBMC B cells and CD4+ T cells, Daudi cells, HEK-Blue IL-4/IL-13 cells, myeloid … (human, UniProt P24394 26-825)); assay: cell-based or functional assay
T1 sequence: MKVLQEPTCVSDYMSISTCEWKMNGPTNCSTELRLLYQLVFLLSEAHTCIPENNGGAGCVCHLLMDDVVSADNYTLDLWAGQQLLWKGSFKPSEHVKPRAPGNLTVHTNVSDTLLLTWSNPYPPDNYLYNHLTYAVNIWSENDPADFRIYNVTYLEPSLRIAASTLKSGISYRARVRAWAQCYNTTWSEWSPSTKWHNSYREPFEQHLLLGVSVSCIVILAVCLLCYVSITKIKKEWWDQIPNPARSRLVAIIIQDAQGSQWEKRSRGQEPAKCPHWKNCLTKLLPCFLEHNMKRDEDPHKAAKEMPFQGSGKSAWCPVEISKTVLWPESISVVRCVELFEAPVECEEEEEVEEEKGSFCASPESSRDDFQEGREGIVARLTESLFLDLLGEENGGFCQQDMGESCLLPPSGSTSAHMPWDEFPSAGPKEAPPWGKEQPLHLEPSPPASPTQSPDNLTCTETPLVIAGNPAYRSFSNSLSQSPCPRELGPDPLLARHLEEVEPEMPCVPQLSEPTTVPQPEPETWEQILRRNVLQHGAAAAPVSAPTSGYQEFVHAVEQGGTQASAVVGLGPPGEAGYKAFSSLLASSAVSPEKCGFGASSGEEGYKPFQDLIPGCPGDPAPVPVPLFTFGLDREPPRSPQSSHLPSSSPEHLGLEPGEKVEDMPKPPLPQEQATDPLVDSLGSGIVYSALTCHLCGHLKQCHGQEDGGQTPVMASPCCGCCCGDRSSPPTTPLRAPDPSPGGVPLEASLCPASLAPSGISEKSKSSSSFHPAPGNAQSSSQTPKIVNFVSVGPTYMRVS

[2] = molecular target: T2, human FcγRIIb (CD32b) extracellular domain (human, UniProt P31994 43-217); assay: SPR (Biacore), antibody captured on protein A, FcγR ECD as analyte, steady state, 25 °C
T2 construct: extracellular domain
T2 sequence (looked up): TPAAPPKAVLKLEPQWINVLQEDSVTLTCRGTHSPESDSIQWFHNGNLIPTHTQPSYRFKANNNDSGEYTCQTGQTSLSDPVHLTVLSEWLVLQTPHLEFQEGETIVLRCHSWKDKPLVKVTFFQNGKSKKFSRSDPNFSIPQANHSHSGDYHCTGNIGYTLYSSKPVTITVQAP
Method: (§1) Unreacted sites were blocked with a 7 minute injection of ethanolamine at 10 μL/minute. Injections of 2×10 μL of glycine, pH 1.5, was used to remove any noncovalently associated protein. Running buffer was 1×HBS-EP+(TEKNOVA, P/N H8022). The FcγR extracellular domains (ECDs)-FcγRI (CD64), FcγRIIA_131R, and FcγRIIA_131H (CD32a), FcγRIIIA_158V, FcγRIIIA_158F (CD16a), and FcγRIIb (CD32b) were produced from stable CHO cell expression and purified using IgG Sepharose and size exclusion chromatography. For FcγRI binding, antibodies were diluted to […] in running buffer, and approximately 150 RU of each antibody was captured in FCs 2 through 4 (RU captured). FC1 was the reference FC, therefore no antibody was captured in FC1. […] Duplicate injections of each concentration were injected over all FCs at 40 μL/minute for 120 seconds followed by a 1200 second dissociation phase. Regeneration was performed by injecting 15 μL of 10 mM glycine, pH 1.5, at 30 μL/minute over all FCs. Reference-subtracted data was collected as FC2 FC1, FC3-FC1, and FC4-FC1 and the measurements were obtained at 25° C. The affinity (KD) was calculated using either steady state equilibrium analysis with the Scrubber 2 Biacore Evaluation Software or a “1:1 (Langmuir) binding” model in BIA Evaluation. For FcγRIIa, FcγRIIb, and FcγRIIIa binding, antibodies were diluted to 5 μg/mL in running buffer, and approximately 500 RU of each antibody was captured in FCs 2 through 4). FC1 was the reference FC. […] Duplicate injections of each concentration were injected over all FCs at 40 μL/minute for 60 seconds followed by a 120 second dissociation phase. Regeneration was performed by injecting 15 μL of 10 mM glycine, pH 1.5, at 30 μL/minute over all FCs. Reference-subtracted data was collected as FC2-FC1, FC3-FC1, and FC4-FC1, and the measurements were obtained at 25° C. The affinity (KD) was calculated using the steady state equilibrium analysis with the Scrubber 2 Biacore Evaluation Software. Each receptor was assayed at least two times.

[3] = molecular target: T3, human FcγRIIA_131H (CD32a) extracellular domain (human, UniProt P12318 34-217); assay: as above
T3 construct: extracellular domain
T3 sequence (looked up): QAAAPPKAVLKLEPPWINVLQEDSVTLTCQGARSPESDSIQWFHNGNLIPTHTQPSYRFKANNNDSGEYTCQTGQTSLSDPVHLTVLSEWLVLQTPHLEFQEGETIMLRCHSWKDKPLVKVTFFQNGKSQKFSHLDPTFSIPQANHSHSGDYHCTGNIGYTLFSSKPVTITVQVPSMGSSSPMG
Method: as §1

[4] = molecular target: T1, human IL-4Rα on cells (human PBMC B …); assay: cell-based or functional assay; remark: listed apart in the source
[5] = molecular target: T4, human FcγRI (CD64) extracellular domain (human, UniProt P12314 16-292); assay: SPR (Biacore), antibody captured on protein A, FcγR ECD as analyte, 25 °C
T4 construct: extracellular domain
T4 sequence (P12314 16-292): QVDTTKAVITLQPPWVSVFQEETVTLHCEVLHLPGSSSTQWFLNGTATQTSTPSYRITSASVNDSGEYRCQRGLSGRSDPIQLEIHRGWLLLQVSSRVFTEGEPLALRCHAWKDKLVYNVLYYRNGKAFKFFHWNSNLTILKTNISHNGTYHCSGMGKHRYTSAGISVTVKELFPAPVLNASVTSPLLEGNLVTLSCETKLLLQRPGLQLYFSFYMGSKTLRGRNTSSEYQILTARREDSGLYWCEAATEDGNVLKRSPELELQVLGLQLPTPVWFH
Method: Unreacted sites were blocked with a 7 minute injection of ethanolamine at 10 μL/minute. Injections of 2×10 μL of glycine, pH 1.5, was used to remove any noncovalently associated protein. Running buffer was 1×HBS-EP+(TEKNOVA, P/N H8022). The FcγR extracellular domains (ECDs)-FcγRI (CD64), FcγRIIA_131R, and FcγRIIA_131H (CD32a), FcγRIIIA_158V, FcγRIIIA_158F (CD16a), and FcγRIIb (CD32b) were produced from stable CHO cell expression and purified using IgG Sepharose and size exclusion chromatography. For FcγRI binding, antibodies were diluted to […] in running buffer, and approximately 150 RU of each antibody was captured in FCs 2 through 4 (RU captured). FC1 was the reference FC, therefore no antibody was captured in FC1. […] Duplicate injections of each concentration were injected over all FCs at 40 μL/minute for 120 seconds followed by a 1200 second dissociation phase. Regeneration was performed by injecting 15 μL of 10 mM glycine, pH 1.5, at 30 μL/minute over all FCs. […] The affinity (KD) was calculated using either steady state equilibrium analysis with the Scrubber 2 Biacore Evaluation Software or a “1:1 (Langmuir) binding” model in BIA Evaluation. […] The affinity (KD) was calculated using the steady state equilibrium analysis with the Scrubber 2 Biacore Evaluation Software. […]

[6] = molecular target: T1, human IL-4Rα on cells (human PBMC B …); assay: flow cytometry on human PBMCs, B cells, Alexa Fluor 647 labelled antibody
Method: (§2) Example 3b. Binding to B cells and T cells: Binding of the exemplified anti-human IL-4Rα antibodies to B cells and T cells was tested in a Fluorescence Activated Cell Sorting (FACS) assay. […] Freshly isolated cells PBMCs were resuspended at 2×10⁶ cells/mL and allowed to rest for 15 minutes at room temperature, then plated at 100 μL/well into a round bottom 96-well plate (COSTAR®) and washed with FACS buffer (PBS containing 2% fetal bovine serum from Corning®). Exemplified anti-human IL-4Rα antibodies and the respective control IgG antibodies conjugated to Alexa Fluor® 647 according to manufacturer's protocol (Thermo Fisher Scientific) were added to the wells at 66.67 nM and diluted 4-fold in duplicate. Equivalent volume of 2× antibody cocktail containing: Human TruStain FcX™. FITC anti-human CD3 Antibody, Alexa Fluor® 700 anti-human CD4 Antibody (all from Biolegend®) and CD20 Monoclonal Antibody (2H7), PerCP-Cyanine5.5 (Thermo Fisher Scientific) was then added to the wells. Cells were incubated at 4° C. for 30 minutes, washed twice with FACS buffer and resuspended in a final volume of 100 μL FACS buffer. Viability dye, Sytox™ blue (Thermo Fisher Scientific), was added and the samples were analyzed via a flow cytometer (LSRFortessa™ X-20; BD BIOSCIENCES). Data analysis was performed using FlowJo software and statistical analysis was performed using GraphPad Prism 9. […]

[7] = molecular target: T1, human IL-4Rα on cells (human PBMC B …); assay: flow cytometry on human PBMCs, CD4-positive T cells, Alexa Fluor 647 labelled antibody, percent IL-4Rα positive cells
Method: as §2

[8] = molecular target: T1, human IL-4Rα on cells (human PBMC B …); assay: flow cytometry on human PBMCs, CD20 B cells, Alexa Fluor 647 labelled antibody, percent IL-4Rα positive cells
Method: as §2

[9] = molecular target: T5, IL-4Rα (target of the affinity engineering of Ab10; form not stated) (UniProt P24394 26-232, limits assumed); assay: affinity during CDR mutagenesis of Ab10 (engineered as a Fab); method and antigen form not stated; order of magnitude only
T5 sequence (looked up): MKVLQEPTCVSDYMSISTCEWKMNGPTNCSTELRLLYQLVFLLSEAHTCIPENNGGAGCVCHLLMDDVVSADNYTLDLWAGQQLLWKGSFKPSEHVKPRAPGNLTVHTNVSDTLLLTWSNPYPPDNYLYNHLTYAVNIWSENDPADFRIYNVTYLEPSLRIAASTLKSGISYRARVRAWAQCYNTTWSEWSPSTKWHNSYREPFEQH

B1: anti-human IL-4Rα antibody Ab7 (antibody, human IgG1, kappa)
heavy: not shown
light: DIQMTQSPSAMSASVGDRVTITCRASQDISNYLAWFQQKPGKVPTRLIYAASSLQSGVPSRFSGSGSGTEFTLTISSLQPEDFATYYCLQWSSYPRTFGQGTKVEIKRTVAAPSVFIFPPSDEQLKSGTASVVCLLNNFYPREAKVQWKVDNALQSGNSQESVTEQDSKDSTYSLSSTLTLSKADYEKHKVYACEVTHQGLSSPVTKSFNRGEC
notes: Human IgG1 backbone
[1]
  Inhibition of IL-4 induced B cell proliferation, IC50: 0.95 nM
[2]
  Kd: 3.02 µM
[3]
  Kd: 1240 nM
[4]
  IL-4 IC50 (nM): inhibition of IL-4 induced SEAP activity in HEK-Blue IL-4R and IL-13R expressing cells: 0.07 nM
  IL-13 IC50 (nM): inhibition of IL-13 induced SEAP activity in HEK-Blue IL-4R and IL-13R expressing cells: 0.51 nM
[5]
  Kd: 0.0428 nM
[6]
  EC50: 0.27 nM
[7]
  EC50: 28.7 nM
[8]
  EC50: 0.14 nM

B2: Ab10 variant with the LCDR3 substitutions H91W, N92S (antibody, V domains shown)
VH: QVQLVESGGGLVQPGGSLRLSCAASGFTFSISSMNWVRQAPGKGLEWVSYISRATGAIYYADSVKGRFTISRNNAKNSLYLQMNSLRDEDTAVYYCAREPVFDYWGQGTLVTVSS
VL: DIQMTQSPSAMSASVGDRVTITCRASQGISNYLAWFQQKPGKVPTRLIYAASSLQSGVPSRFSGSGSGTEFTLTISSLQPEDFATYYCLQWSSYPRTFGQGTKVEIK
notes: also called the resulting antibody
[9]
  Kd: ~0.01 nM
